This note sets out measurements from paper doi:10.1101/2024.11.08.622622.

Like-named read-outs stand apart in the source and are kept apart here.

The term Kd denotes the concentration at which binding is half-saturated. Higher therefore signals a looser complex. In general, stoichiometry N refers to the number of molecules, sites or subunits per partner or assembly.

One assay has as its target actin (Alexa 488 tagged). Kind of assay: FRET or BRET. For orientation: BRET reads energy transfer from a luciferase to a nearby fluorophore.
The target of assay [1] is Ustilago maydis Hsp20, recombinant His6X-Hsp20 (Ustilago maydis). Kind of assay: SEC. A general note: In gel filtration, larger molecules generally elute earlier.
Assay [2] has the same target. Briefly: SEC. The source holds these as a separate data set.
In assay [3] the target is His6X-Hsp20KKK (IAI motif 209-211 mutated to KKK) (Ustilago maydis). Kind of assay: SEC.

For the substance “Ustilago maydis Hsp20, recombinant His6X-Hsp20 (natural protein)”, the Kd with actin (Alexa 488 tagged) turned out to be 99.6 nM. Further, the figures for the stoichiometry N in assay [1] and in assay [2] were 2 and 18, respectively.

For “His6X-Hsp20KKK (IAI motif 209-211 mutated to KKK) (natural protein)”, the stoichiometry N in assay [3] was 2.
